Data from the supplement of paper PMC9170038.

What follows are sequences tested on K4 kissing-loop RNA reporter (assay: apparent KD of K4 kissing-loop reporter; higher = weaker reporter binding). Settings: Eterna round: R107; input ligand: arginine 13.2 mM.
Procedure: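 RNA-MaP round R107: designed RNA switches with theophylline, tryptophan, arginine or FMN aptamers are transcribed on-chip within common flanks. They are titrated with a labelled K4 kissing-loop RNA reporter in RNA-MaP buffer (100 mM Tris pH 7.5, 80 mM KCl, 4 mM MgCl2), without ligand or with the indicated ligand. Median apparent KD per design.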
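Further: bound reporter read as fluorescence of individual clusters on recovered sequencing chips by microscopy, with normalized cluster intensities fitted with a binding model.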

In order of falling “apparent KD of K4 kissing-loop reporter” value:
1. AAAAUAACCCAGUGAUGUUGGUAUGCAGAUACCAGCGACGAAAGUCGCCCUUGGCAGCUGUGGACGUACAAAAUAAGUACGUCCU  834 nM
2. AAAUAAAUCGGAGGAUAUCCUUCCCACGUCGAAGUACCGUGCUUGAUGGAGUGAUGUUCGAUCAGAGGAGAAGGCCGAUAAAUAA [Same State FMN B GF20]  732 nM
3. UUUGGUUUCUCGGCCGCCACUCGUUGUCUAUCGGCUUCAGGGAUAUAGUGAUGUUAUGUAUAGAAGAGGACCGGGAGAAGGUUUU [ExTryptoB.Dw]  602 nM
4. UAUACUAGACAAGAGAGAAUUCUCUCAAGAGAGGAUAUCCGAAUUCGGAGAAGGCUCGCUAAGUGAUGUUUGGAAUAGUCUAGAA [AK4 SS FMN A]  352 nM
5. CCGCCGGUCGGAAGGAGCGCACGCCAGAGUGAUGUUCUGGCGCAGGCAUUUAGUGCCCGCGUGCAGGUAGGUCGCCGAUUCUGGC [Arlaaa]  310 nM
6. ACGUAGUACGUAGGAUAUCAGAGAUCAGUUAGUGAGAUCGAGUGAUGUUCGAUCAUGUGUUCAUUUUGAGAAGGAUGUAGUAGGA [KL-SSFMN-B6]  302 nM
7. GGUGUUGUUUGUGCUGUUUUCUUUGUUUCUCGAGGACCGGUACGGCCGCCACUCGAGUGAUGUUUGGGUAGCGAUGUUUGUUAGU [Bdazzled - #2 - Exc. Tryptophan A]  280 nM
8. AGUGGACGUGUCUGGAGUGAUGUUCUGGAUACCAGACACGAAAGUGUCCCUUGGCAGCCGGAGUGAUGUUCCGGCGUUCACUAAA [Omei KL Theo A Exc B v5]  239 nM
9. UUUGGUAUCUCGGCCGCCACUCGUGGGAAAUGGGCCUCAGGGAUAUAGUGAUGUUAUGUAAAGAAGAGGACCGGGAGAAGGAAGG [ExTryptoB.Dk]  232 nM
10. UACACGACUCGUGUAAACCGAGGUAACAGGCAGGAUAUGUAACGGAACAGAAGGGCCAUGUUGCGUGUCCAGUGAUGUUGGAUGC [Vetedile]  231 nM
11. AUUUUGGUUUAGAGUGAUGUUCCUUGUAUUCGAGGACCGGUACGGCCGCCACUCGGAUAGAAAAGAAAAGAAAUGUUUGAUUUUU [BDazzled - #8 SS Tryptophan A]  219 nM
12. AGAACUGUCUGAGAUACCAGCUAAGGAGUGAUGUUCCGGCUCGACGAAACGUCGAGCCAUAGCCCUUGGCAGCUCAGACAGUUCA [#27 K4 Theophylline B Same State]  183 nM
13. GGGAAUUACGGAGGAUAUGCACUGAGGAGGAGAAUAUAGUGAUGUUAUAUAAGAGGAAGGAGAAGAGUAGAAGGCCGUGGAAAGG [SSFMNB.D]  161 nM
14. UGUAUGUGAUUUGAUACCAGACCAGCUGGUGGAAUCUGAGUGAUGUUCAGGUAGGUUUGGGUCCCUUGGCAGCAAAUCGCAUACU [KL-SSTheoB27]  145 nM
15. GGUGCCGGGCAAGGAUAUUAGUCGAGUGAUGUUCGGCGGUCCAAGUCGUUGCGGCGUUAAACCCUUUGAGAAGGUGCCCGGUGCC [#2 Exclusion - FMN B Attempt #1 (HarryS)]  144 nM
16. UGACUGGAUGGAAGGAGCGCUAAACUCCUAGUGAUGUUAGGGAUACGAGGCAAAGCCUCGAGGCAGGUAGGUCGCCAUCUAGUCU [FiskerMod 24 - Jieux - Same State - Arginine B]  129 nM
17. CCUAUCUCAUACGAUACCAGUCAAAUAAAUUAUAACGAGUGAUGUUCGAAAUGCCAUCACGACCCUUGGCAGCGUAUGGGAUAGG [Ex Theophylline B K4 1]  123 nM
18. GGUAGCAUGGCGGCCGCCACUCUUCAUUAGUGAUGUUAAUGCCGAGUGCGCUAACUCCAACUGGAGAGGACCGGGCCAUGCUACC  122 nM
19. CUGACGCUGAUACGGUGGCCGAUGGUCGUGCGAGGACCGGUACGGCCGCCACUCGCAUGAGUGAUGUUCAUGUGUCGUCGUCGUC [#06 K4 Tryptophan A Exclusion]  115 nM
20. AAUUUAUAUUUAUUCUUUAAUUGUUCAGAAGGAGCGUGAAUUAUCACAGGUAGGUCGCUGAGCUAGUGAUGUUAGCUAUAUACUA [JR_ExcArginiA_Sub008]  105 nM
21. UCUUUAGUAUAUGAUACCAGCAGUGAGAGACAGGAAGUAUAGUGAUGUUAUAUGAGAGAAUGCCCUUGGCAGCGUGUGCGGUGGG [SSTheophylB.T]  103 nM
22. CAUUACGGUCGCUUACCAAACCACUACUUCCGAGGACCGGUACGGCCGCCACUCGCCAGUGAUGUUGGCUCGGGCGGCCGAUUAU [Orrebeante]  103 nM
23. AGCUCAGAGUGACUCGAUAAGAGUCACAAACGAGGACCGGUACGGCCGCCACUCGAAAUAAGGAGAGUGAUGUUCUCGCUGAGCA [FiskerMod 8 - Jieux - Same State Tryptophan A]  81.5 nM
24. UGACAUUGCUCAGAUACCAGACAUGAGCAUCAGCCAUGUGCCAAACGUACAAUAAUAAAUGUCCCUUGGCAGCUGAGCAAUGUCU [TheoBX 14]  33.1 nM

Same assay, conditions: Eterna round: R107; input ligand: none

In order of rising “apparent KD of K4 kissing-loop reporter” value:
1. AAUUUAUAUUUAUUCUUUAAUUGUUCAGAAGGAGCGUGAAUUAUCACAGGUAGGUCGCUGAGCUAGUGAUGUUAGCUAUAUACUA [JR_ExcArginiA_Sub008]  62.8 nM
2. GCUAAGGAGUGAUGUUCCAAGUGAUGUUAACGAGGACCGGUACGGCCGCCACUCGAUACGGCCGGAAAGUAAGAUAAACUACAGC [Same State - Tryptophan A (Freestyle 5)]  93.2 nM
3. AGCUCAGAGUGACUCGAUAAGAGUCACAAACGAGGACCGGUACGGCCGCCACUCGAAAUAAGGAGAGUGAUGUUCUCGCUGAGCA [FiskerMod 8 - Jieux - Same State Tryptophan A]  124 nM
4. UGGAGUUGACGAAAAGUCAACUCCCGAGAAGGAGCGGACGAAAGUCCAGGUAGGUCGCUCGCUACCAGUGAUGUUGGUACUCAAA  156 nM
5. AUAUGCUUAGCGGCCGCCACUCCAAUUGGCCGAAAGGCCUGAUACCGAGUGAUGUUCGGUUGGAGGAGGACCGGGCUAGGCGUAU [#2 Exclusion - Tryptophan B Attempt #1 (HarryS)]  169 nM
6. GUUACGCAUGGAAGGAGCGCACUCCGAUUGGUCGACACAGUGAUGUUGUGGUUCGUUCGAAUGCAGGUAGGUCGCCAUGUGUAAC [Ex Arginine B K4 18]  175 nM
7. GGGAAUUACGGAGGAUAUGCACUGAGGAGGAGAAUAUAGUGAUGUUAUAUAAGAGGAAGGAGAAGAGUAGAAGGCCGUGGAAAGG [SSFMNB.D]  203 nM
8. GGAUAGGACAGAGGAUAUGGUAGCUAGGCAAGAAUAACUUGUCUAGCAUCCAUGAGGAGUGAUGUUCCAGAAGGCUGUCCUAUCG [FmnBX 5 - #SwitchBubble #StaticStem]  211 nM
9. CCUAUCUCAUACGAUACCAGUCAAAUAAAUUAUAACGAGUGAUGUUCGAAAUGCCAUCACGACCCUUGGCAGCGUAUGGGAUAGG [Ex Theophylline B K4 1]  212 nM
10. UGUGAUGAGUAGAGUGAUGUUUUGAAGGAUACCAGAGUGUUGUUAUUCCCUUGGCAGCUUGAGUGAUGUUUGAUGUUGUUGUAGU [zizmullin]  248 nM
11. GGUAGCAUGGCGGCCGCCACUCUUCAUUAGUGAUGUUAAUGCCGAGUGCGCUAACUCCAACUGGAGAGGACCGGGCCAUGCUACC  288 nM
12. CGAGUCCUGAGGAGUGAUGUUCCUCGGCCACGAGGACCGGUACGGCCGCCACUCGUUACUCGGGCUUAGCAGCAAGCACUAAGCU [Acesote]  334 nM
13. GGUGUUGUUUGUGCUGUUUUCUUUGUUUCUCGAGGACCGGUACGGCCGCCACUCGAGUGAUGUUUGGGUAGCGAUGUUUGUUAGU [Bdazzled - #2 - Exc. Tryptophan A]  355 nM
14. ACGUAGUACGUAGGAUAUCAGAGAUCAGUUAGUGAGAUCGAGUGAUGUUCGAUCAUGUGUUCAUUUUGAGAAGGAUGUAGUAGGA [KL-SSFMN-B6]  366 nM
15. UGUAAGCGCGUAGAUACCAGCAGACGAGUGAUGUUCAAAAGAUUAAGGAAAAGAAAGUAAUGCCCUUGGCAGCUAAUCAUAAGCG [whbob_Ex_Theo_B_sa92]  466 nM
16. AAAUAAAUCGGAGGAUAUCCUUCCCACGUCGAAGUACCGUGCUUGAUGGAGUGAUGUUCGAUCAGAGGAGAAGGCCGAUAAAUAA [Same State FMN B GF20]  1040 nM
